Reference: article doi:10.1101/2023.04.03.535215

Target: Recombinant SARS-CoV-2 spike protein (SARS-CoV-2) (UniProt P0DTC2)
Test: ELISA

With “Native human surfactant protein A (from UniProt Q8IWL2 21-248) (natural protein)” the percent decrease of binding in 10 mM EDTA was 46%.
